Paper PMC6252174 (Nature structural & molecular biology, 2018)

Target: the molecule itself
Test: cryo-EM structure

B1: Xenopus tropicalis TRPV4 crystallization and cryo-EM construct TRPV4_(cryst) (133–797 N647Q) (domain or fragment, UniProt A0A6I8RQZ3 133-797, looked up)
chain: APSPDPPPVIKMFNRHMLFDIVSRGSTAELEGFLPFLLAQKKRLTDEEFREASTGKTCLTKALMNLNGGKNDTIPMLIDIAEKTGNLREFINSPFRDVYYRGQTALHIAIERRCKHYVELLVEKGADVHAQARGRFFQPKDEGGYFYFGELPLSLAACTNQPDIVHYLTENAHKKADIRRQDSRGNTVLHALVAIADNTRENTKFVTKVYDLLVIKCVKLYPDSSLEAIFNNDSMSPLMMAAKLGKIGIFQHIIRLEIKDEEARHLSRKFRDWAYGPVYSSLYDLSMLDTCGEEVSVLEILVYNSKVENRHEMLAVEPINELLRDKWQKFGAVSFYISVVSYLIAMIIFTLIAYYRPMDGTPPYPYRTTMDYMRLAGEIVTLLTGVVFFITNIKDLFMKKCPGVNSLFIDGSFQLLYFIYSVLVIITAVLYLVGIESYLAVMVFALVLGWMNALYFTRGLKLTGTYSIMLQKILFKDLFRFLLVYLLFMIGYASALVSLLNPCTSQESCIETSSQCTVPEYPSCRDSSTFSKFLLDLFKLTIGMGDLEMINSAKYPAVFIILLVTYIILTFVLLLNMLIALMGETVGQVSKESKQIWKLQWATTILDIERSFPVCMRKAFRSGEMVTVGKNLDGTPDRRWCFRVDEVNWSHWNQNLGIINEDPGR
stoichiometry N: 4
